Laboratory results reported in US20210101937A1 (Bicycle, published 2021).
*1 amine or outer side, *2 acyl side, *3 side chain or, on linkers, in order; H or OH if unused. Bridges are numbered along the chain shown (N, C = ends). Roman numbers before positions name the chains, in order. Where no end group is shown, it is not given here. [ ]: non-standard residue; d: D form. The star is where a group is joined. TATA = O=C(CC[*:1])N1CN(C(=O)CC[*:2])CN(C(=O)CC[*:3])C1; 1Nal = N[C@@H](Cc1cccc2ccccc12)C(=O)O; Hyp = O=C(O)[C@@H]1C[C@@H](O)CN1; hArg = N=C(N)NCCCC[C@H](N)C(=O)O; tBuAla = CC(C)(C)C[C@H](N)C(=O)O; Cysteamide = C(CS[*:3])N[*:1]; NMeA = CN[C@@H](C)C(=O)O; Nle = CCCC[C@H](N)C(=O)O; Pent4ynoyl = C#CCCC(=O)*; dNMeA = CN[C@H](C)C(=O)O; βAla = NCCC(=O)O; Mpa = O=C(O)CCS

biological target: T1, CD137 (UniProt Q07011 24-255, limits assumed); assay: cell-based or functional assay
T1 sequence (Q07011 24-255 limits assumed): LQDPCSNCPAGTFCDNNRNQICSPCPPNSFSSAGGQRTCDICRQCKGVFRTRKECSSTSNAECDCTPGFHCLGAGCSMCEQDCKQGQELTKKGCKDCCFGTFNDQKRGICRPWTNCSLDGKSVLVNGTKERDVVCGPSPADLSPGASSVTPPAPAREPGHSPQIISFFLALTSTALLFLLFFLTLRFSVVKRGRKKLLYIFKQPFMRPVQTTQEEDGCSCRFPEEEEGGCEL

| Binder | Fold improvement in EC50 over BCY10000 on same plate | Fold improvement in Emax over BCY10000 on same plate |
| --- | --- | --- |
| BCY12585 (linker I:1-I:5-I:15, II:1-II:8-II:15 via TATA; not fully specified (bridges); printed as CP[1Nal][dE]CM[HArg]EWSTP[HyP]WC / Ac-C[tBuAla]PE[D-Lys(PYA)]PYCFADPY[Nle]CA; also: chain 1 N-terminus joined to chain 2 dLys(PYA) by Peg5 linker (heterotandem complex)) peptide 1: CP[1Nal][dE]CM[hArg]EWSTP[Hyp]WC peptide 2: Ac-C[tBuAla]PE[dK](Pent4ynoyl)PYCFADPY[Nle]CA | 1.31 fold | 1.5 fold |
| BCY12020 ([Ac]C[tBuAla]PE[dK]PYCFADPY[Nle]C[Dap(PYA)]; carries Palmitic acid-PEG10 (Example 7); Cys residues bonded to TATA scaffold; [PYA][B-Ala]CP[1Nal][dD]CM[HArg]DWSTP[HyP]WC; Cys residues bonded to TATA scaffold) peptide 1: XCPXDCMXDWSTPXWC peptide 2: CXPEKPYCFADPYXCX | 0.15 fold | 0.48 fold |
| BCY12583 (linker I:1-I:5-I:15, II:1-II:8-II:15 via TATA; not fully specified (bridges); printed as CP[1Nal][dE]CL[HArg]DWSTP[HyP]WC / Ac-C[tBuAla]PE[D-Lys(PYA)]PYCFADPY[Nle]CA; also: chain 1 N-terminus joined to chain 2 dLys(PYA) by Peg5 linker (heterotandem complex)) peptide 1: CP[1Nal][dE]CL[hArg]DWSTP[Hyp]WC peptide 2: Ac-C[tBuAla]PE[dK](Pent4ynoyl)PYCFADPY[Nle]CA | 0.6 fold | 1.47 fold |
| BCY11616 (Ac-ACIEE(D-K)(PYA)QYCFADPY(Nle)CA; Cys residues bonded to TATA scaffold; CP[1Nal][dD]CM[HArg]DWSTP[HyP]WC; Cys residues bonded to TATA scaffold) peptide 1: CPXDCMXDWSTPXWC peptide 2: ACIEEKQYCFADPYXCA | 0.21 fold | 1.22 fold |
| BCY11776 (not fully specified; [Ac]C[tBuAla]PE[dK]PYCFADPY[Nle]C[Dap(PYA)]; dK carries palmitic acid (Example 5); Cys residues bonded to TATA scaffold; CP[1Nal][dD]CM[HArg]DWSTP[HyP]WC; Cys residues bonded to TATA scaffold) peptide 1: CPXDCMXDWSTPXWC peptide 2: CXPEKPYCFADPYXCX | 0.05 fold | 0.07 fold |
| BCY12577 (Ac-C[tBuAla]PE[D-Lys(PYA)]PYCFADPY[Nle]CA; Cys residues bonded to TATA scaffold; [Ac]CP[1Nal][dK]CM[HArg]DWSTP[HyP]W[Cysteamine]; reactive groups bonded to TATA scaffold) peptide 1: CPXKCMXDWSTPXX peptide 2: CXPEXPYCFADPYXCA | 0.25 fold | 1.06 fold |
| BCY12710 (linker I:1-I:5-I:15, II:1-II:8-II:15 via TATA; not fully specified (bridges); also: chain 1 N-terminus joined to chain 2 dLys(PYA) by Peg5 linker (heterotandem complex)) peptide 1: CP[1Nal][dD]CM[hArg]DWSTP[Hyp]WC peptide 2: Ac-C[tBuAla]PE[dK](Pent4ynoyl)PYCFAD[dNMeA]Y[Nle]C | 0.16 fold | 1.41 fold |
| BCY12377 ([Ac]C[tBuAla]EE[dK(PYA)]PYCFADPY[Nle]C; Cys residues bonded to TATA scaffold; CP[1Nal][dD]CM[HArg]DWSTP[HyP]WC; Cys residues bonded to TATA scaffold) peptide 1: CPXDCMXDWSTPXWC peptide 2: CXEEKPYCFADPYXC | 0.78 fold | 1.37 fold |
| BCY11618 (linker I:2-I:6-I:16, II:1-II:8-II:15 via TATA; linker II:N-II:5 via Peg5; not fully specified (some residues); also: palmitic acid on dK of chain 1) peptide 1: Pent4ynoyl-[βAla]CP[1Nal][dK]CM[hArg]DWSTP[Hyp]WC peptide 2: Ac-C[tBuAla]PE[dK]PYCFADPY[Nle]CA | 0.09 fold | 2.59 fold |
| BCY12573 (linker I:1-I:5-I:15 via TATA; numbers in words are those of the source; also: two bicycles joined by Peg5 linker, linker at chain B 7 at chain B 14 to a chain's N-terminus via TATA) peptide 1: CP[1Nal][dD]CM[hArg]DWSTP[Hyp]WC peptide 2: [Mpa][tBuAla]PE[dK](Pent4ynoyl)PYCFADPY[Nle]C | 0.74 fold | 1.34 fold |
| BCY12578 (Ac-C[tBuAla]PE[D-Lys(PYA)]PYCFADPY[Nle]CA; Cys residues bonded to TATA scaffold; [3-mercaptopropionic acid]P[1Nal][dK]CM[HArg]DWSTP[HyP]W[Cysteamine]; reactive groups bonded to TATA scaffold) peptide 1: XXKCMXDWSTPXX peptide 2: CXPEXPYCFADPYXCA | 0.05 fold | 0.93 fold |
| BCY12576 (Ac-C[tBuAla]PE[D-Lys(PYA)]PYCFADPY[Nle]CA; Cys residues bonded to TATA scaffold; [3-mercaptopropionic acid]P[1Nal][dK]CM[HArg]DWSTP[HyP]WC; reactive groups bonded to TATA scaffold) peptide 1: XXKCMXDWSTPXWC peptide 2: CXPEXPYCFADPYXCA | 0.23 fold | 1.45 fold |
| BCY12709 (linker I:1-I:5-I:15, II:1-II:8-II:15 via TATA; not fully specified (bridges); also: chain 1 N-terminus joined to chain 2 dLys(PYA) by Peg5 linker (heterotandem complex)) peptide 1: CP[1Nal][dD]CM[hArg]DWSTP[Hyp]WC peptide 2: Ac-C[tBuAla]PE[dK](Pent4ynoyl)PYCFAD[NMeA]Y[Nle]C | 0.08 fold | 2.15 fold |
| BCY12582 (linker I:1-I:5-I:15, II:1-II:8-II:15 via TATA; not fully specified (bridges); also: chain 1 N-terminus joined to chain 2 dLys(PYA) by Peg5 linker (heterotandem complex)) peptide 1: CP[1Nal][dA]CM[hArg]DWSTP[Hyp]WC peptide 2: Ac-C[tBuAla]PE[dK](Pent4ynoyl)PYCFADPY[Nle]CA | 1.69 fold | 1.32 fold |
| BCY12572 ([Ac]C[tBuAla]PE[dK(PYA)]PYCFADPY[Nle][Cysteamine]; reactive groups bonded to TATA scaffold; CP[1Nal][dD]CM[HArg]DWSTP[HyP]WC; Cys residues bonded to TATA scaffold) peptide 1: CPXDCMXDWSTPXWC peptide 2: CXPEKPYCFADPYX | 0.35 fold | 1.67 fold |
| BCY12661 ([Ac]C[tBuAla]EE(dK)PYCFADPY[Nle]C[Dap(PYA)]; carries the palmitic acid azide of Example 8 (palmitic acid, γGlu, Lys(N3)); Cys residues bonded to TATA scaffold; [PYA]CP[1Nal][dD]CM[HArg]DWSTP[HyP]WC; Cys residues bonded to TATA scaffold) peptide 1: XPXDCMXDWSTPXWC peptide 2: CXEEKPYCFADPYXCX | 0.34 fold | 0.5 fold |
| BCY12581 (linker I:1-I:5-I:15, II:1-II:8-II:15 via TATA; not fully specified (bridges); also: chain 1 N-terminus joined to chain 2 dLys(PYA) by Peg5 linker (heterotandem complex)) peptide 1: CP[1Nal][dE]CM[hArg]DWSTP[Hyp]WC peptide 2: Ac-C[tBuAla]PE[dK](Pent4ynoyl)PYCFADPY[Nle]CA | 1.35 fold | 0.88 fold |
| BCY11860 (linker I:2-I:6-I:16, II:1-II:8-II:15 via TATA; linker II:N-II:5 via Peg5; also: two bicycles joined by Peg5 linker, further acylated with a reagent shown only in a drawing) peptide 1: Pent4ynoyl-[βAla]CP[1Nal][dK]CM[hArg]DWSTP[Hyp]WC peptide 2: Ac-C[tBuAla]PE[dK]PYCFADPY[Nle]CA | 0.29 fold | 1.53 fold |
| BCY12574 (linker I:1-I:5-I:15 via TATA; numbers in words are those of the source; also: two bicycles joined by Peg5 linker, linker at chain B 7 to a chain's N/C-terminus via TATA) peptide 1: CP[1Nal][dD]CM[hArg]DWSTP[Hyp]WC peptide 2: [Mpa][tBuAla]PE[dK](Pent4ynoyl)PYCFADPY[Nle]-Cysteamide | 0.22 fold | 0.77 fold |
| BCY12579 (Ac-C[tBuAla]PE[D-Lys(PYA)]PYCFADPY[Nle]CA; Cys residues bonded to TATA scaffold; [Ac]CP[1Nal][dK]CM[HArg]HWSTP[HyP]WC; Cys residues bonded to TATA scaffold) peptide 1: CPXKCMXHWSTPXWC peptide 2: CXPEXPYCFADPYXCA | 0.29 fold | 1.07 fold |
| BCY12580 (Ac-C[tBuAla]PE[D-Lys(PYA)]PYCFADPY[Nle]CA; Cys residues bonded to TATA scaffold; [Ac]CP[1Nal][dK]CM[HArg]EWSTP[HyP]WC; Cys residues bonded to TATA scaffold) peptide 1: CPXKCMXEWSTPXWC peptide 2: CXPEXPYCFADPYXCA | 0.64 fold | 0.97 fold |
| BCY12379 ([Ac]C[tBuAla]PE[dK(PYA)]PYCFADPY[Nle]C; Cys residues bonded to TATA scaffold; CP[1Nal][dD]CM[HArg]DWSTP[HyP]WC; Cys residues bonded to TATA scaffold) peptide 1: CPXDCMXDWSTPXWC peptide 2: CXPEKPYCFADPYXC | 0.91 fold | 1.29 fold |

biological target: T1, CD137; assay: cell-based or functional assay; remark: another data set of the same source

| Binder | Fold improvement in EC50 over BCY9173 on same plate | Fold improvement in Emax over BCY9173 on same plate |
| --- | --- | --- |
| BCY12234 (Ac-C[tBuAla]PE[D-Lys]PYCFADPY[Nle]CA; Cys residues bonded to TATA scaffold; [Ac]A[HArg]DC[HyP]LVNPLCLHP[dD]W[HArg]CK(PYA); Cys residues bonded to TATA scaffold) peptide 1: AXDCXLVNPLCLHPDWXCK peptide 2: CXPEKPYCFADPYXCA | 1 fold | 0.8 fold |
| BCY12235 (Ac-C[tBuAla]PE[D-Lys]PYCFADPY[Nle]CA; Cys residues bonded to TATA scaffold; [Ac]A[HArg]DC[HyP]LVNPLCLK(PYA)P[dD]W[HArg]C; Cys residues bonded to TATA scaffold) peptide 1: AXDCXLVNPLCLKPDWXC peptide 2: CXPEKPYCFADPYXCA | 1.1 fold | 0.8 fold |
| BCY12233 (linker I:4-I:11-I:18, II:1-II:8-II:15 via TATA; linker II:N-II:5 via Peg5; also: two bicycles joined by Peg5 linker) peptide 1: Pent4ynoyl-A[hArg]DC[Hyp]LVNPLCLHP[dD]W[hArg]C peptide 2: Ac-C[tBuAla]PE[dK]PYCFADPY[Nle]CA | 1 fold | 0.9 fold |
